In the domain aggregation screens of Martell et al. (2025):

Experiment: soluble fraction after stress (log2 fold change); higher = more stays soluble; pooled small domains, quantitative proteomics
Settings: stress: 50 degC
Procedure, shortened: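 Quantitative proteomics served as the high-throughput read-out for pooled custom libraries of small protein domains. Each was stressed at 50°C. Aggregation propensity is expressed as the base-two log fold change in soluble protein after stress. A higher value means a larger share of the protein remains in solution.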

Sequence	soluble fraction (log2)
HMLLFSVADIVKRSKRILSFKTDAELAAYFGVSRSTLSNWIARNSIDFPLLLSKMKDVDYTWLILGKGTPG	-3.97
HMNIEEAESILKEIKTVLTDKEYEVYTLRAKGFTYQEIASLLNTTTKSVDGALSRIKTKINNIK	0.0839
HMGDPEYFKKQLGDFMDRFNITSEDIKNLSIAGAINRMMNNAEGEDKTVLSKLLETVNKSGVGNLPAKTI	0.0622
HMAAVPYQVKITTEDLRIRTGPGTNHDFTGQYTGKGVFTIVEESEGSGAPIWGRLKSGAGWIGIDPSWSVR	-0.706
HMTVKEYNRAVDEYSDAVWRFIRGNLRDEDRANDIVQDSFEKLWMHVTEIDYSVAKSWLFSTAYNNMIDI	-0.277
HMFFMTMGEKIQLLRKKQNWSQETLAEKLSVSRQAVSLWERDESQPELDKLLKLAKIFSVTTDYLIDDSVT	-0.386
HMLANLNKELQNDAALLKQKAQGNSNLLAKIQDVEQQMKQVNTSSASDEAKAKELQTLQRKLTAYKKALA	0.0101
HMTRQRQLIYNIIQRADDHPTAEMIYARAKAEMPSIAFGTVYRNLKLMVDAGEILHIPVAGEPDRYDK	-1.98
HMDNLSESQIKAYSSILSRTHEISDLAENKDYLAFSLWIANILRDPQSVREETAKRVFSALHTNTDFK	-0.945
HMNINHEINIKSKKKISILENNPNLSQFYLTKNPDQYNYNLVFSDKSELNKLKEKLESDNEVEDIDIRYG	0.06
HMDSVTVPDISGYSPKAAEDSINNAGLKINEQGLSGSGDGQVVERTSPSAGSKVKKGDSVTVYYSKA	0.00106
HMDPTYYFNLYPNPSKDEVSLFTNFTGKINIEILDLAGKSILSDNPISTISLVSLKEGLYLVKVKS	-0.208
HMATPSTGQVSVVRLNLRVSPSISSPVVTRLTQGDTVKILAASDDGRWYKVATADGRTGWLYTIYITAE	-0.37
HMQQISDPQVLRPMAEEVLHQSQKVVQDYKGGNKNAFHALVGQMMKKTQGKGNPQVIGQVLSELLDE	0.476
HMRPDDPYLVIGASREMGDEELKRHYRRLVAETHPDRGIARGLPAEAIAIATRRLAAINAAWDAIERERGL	0.035
HMTKTKFLSKDMILSAMSRTKSNRAAARYLSVSFVHYKKYAREYKDETSGVSLWEKHKNQSGTGIPK	-1.92
HMNLGVIYSLKAEVRSEPNTFSTRLFEVHEGLKVSINQLENDWVEIELLDGKTGWISNDQIRLI	-2.12
HMELEIPGELIEAVRRLRDERQRMRLAGELAARQIQMHPERYTEASIDPVQTWDELRARILALA	-0.248
HMPQPEIEIAAVVPYSAGALLSRIHDDGELLAPVEYRGEGVFVHARVPADIEAAMRRGGMLSPAET	0.0913
HMAVKNAQIDVQQFFYSKSGEVDFGRKIKAIQSHFTPERLQSFTAAVPPSQWVSQLQVMWDSL	-1.39
HMDILEVLIKKDLAMELLEQLTERQRTVVYLRYFYQLNQKEIADYLGISQQRVSEILSRAKAVLTAYTKK	-1.43
HMPMTRILFLPDDRTILQFDSAEPAEDLVSAVNAGRWLPPEPYRSGFGLGLPENRLRASRQGALVVVMLS	-0.967
HMAPGSKAEIPEDLMKVINKDPKMKAFVATLNKANIMAISFRLSTAKKPETRERRFNLILETLKRGEKF	-3.18
HMDDHLRLSDNERISAMSALATHFTEGRLDTSEFDERTLAASQAKSRGDLRPLFDDLPGQLPAALSP	0.0376
HMPELPEVETSRRGIEPHLVGATILHAVVRNGRLRWPVSEEIYRLSDQPVLSVQRRAKYLLLELQA	0.0555

Sequence	soluble fraction (log2)
HMRNANENTLKDLPVAVPNIHVSNIEEKKDFHLIQLEYSQEFDPREDLFNFAVNSSWVILKMTPT	0.422
HMQMGLNEAYRVLHVSPDAPWREVQSAYKERMAKSHPDKVSHLGEELQEKAKELTVEINKAYNTIKRYKK	0.194
HMPIEQVEVPNLTNMTREEAESTLTSLNLKAQVHEEANEADEGKVFKQGTNTGEMVDEGSTIEIWVS	-0.478
HMSDTVDITKLGIAGKTKEAAEALLKENGFSVESKEENSDTIEKGKVISYSPTKPKNGDRITLIVSSGKK	0.0915
HMALTQEQLGQRLQDARKSVALTQQEVAEDLGLSRESLAQIEAGSRSVNSLEIVRLARLYGRSLSSILLE	-0.612
HMSERVVEIDPSQLRPGLFIRLPSGWMNHPFLFNQFRINSAEQVEIIQKLGLKTVQYLPERSSTQALPRA	-0.499
HMRTNNEITSYKLKSGKKRWKFQTYLGLDDKGQKVSVTRQGFRTYNEAISEYNKLRAQGTQGYQ	-0.355
HMTAVAAEQQAQDAYRQTAANNLNEIQAKYKLPDSESDDFFTFAYERGFTQEDFIDIGLVDKIMGDYV	0.0927
HMSAITLDQARAIALDHAGISEGDATFVKEQTGTSSYEIEFYSGSNEYDYEIDKATGAILNVDR	0.0269
HMEFYYSDLVGMIVYDTGGNELGKVQAVLNHGAGDLLEIHGVNLKTSILIPFTKEAVPTVDIAARRIVTDP	0.0733
HMVVQTELVRISITSLSGEDIRRLVQIKVVGATIEPFEGGGFLITGTAEQIAKAKDFLNSMSTEF	-0.855
HMEAISSESIKKMIKSYVSGEDASKPLSDQQIADLLVKEGYMISRRTVAKYRDELGILSSSKRKR	-0.0456
HMAKSKYETHVLPNLDKIIKWAKAGATAKEIAANLHIAYSTFRKYLDEGQEGDERYAALSAAFAQA	0.321
HMNSSLFLARQVHALRKKAGLTLQQLSRKSDVSVSTLSKIEKGQLSPTYEKIVSLARGLDVPIAALFHE	-0.976
HMENVLFVNVLSMTVRELAEMMKIPVNKIIQDSFSKGIMMNPNQRLEYDNFAELAKKYGITVKI	-0.879
HMDDKLKKLEEVFEMQEGTLTPDMRLDELEEWDSMTRLSLIVMMEDDYGKKVKRSEVMNYTTVQDIVDSME	-0.5
HMILVLKPGAPEDLKNELIHDIEKMGLRVHVSVGEGTTIIGLIGDTSKISKYTFSSYEIVSNVLRVT	-0.0106
HMFDTVTIGRKIAELRKAHNMTQFELADALGISFQAVSNWERGASMPDISKLPELAEIFGVTIDEVLGK	-0.839
HMDNPPDRAEIEQMLKDAGLTPEADAMAALSDLARTLDPGDFRQTLEKITLYKLGDSTPIGLDDIAAGAP	-0.0256
HMSAQDLIVKTDATQVEARVLEISPEQIRYKRFSNPDGPTYVLPVDAVDYIRYANGETDSFR	-0.0039
HMNDPNAPITENQLKAIHVLLDKLKVDDNLKHAYIADVLQLDNEPETLKTLTKAQGSMAIERMQLLKDN	0.328
HMGANAVAAFTARVRTGPSTGYPVRISVPQGRQVRVISGPYGGWYRVSYQGLTGYTYGGLLRQG	-0.408
HMNMAEQGISLDSEAGKARFVSQALPLLKQLPDGVFKQRMLNQLADRVEVTADFIAQQLAQLKAA	-0.079
HMDQSIDADIINLNFSKNIIKIEENVYYKNNNAKVNADKIEINIETKKLKISMNEQEDEVEIFAK	0.283
HMASVLTAKLSEREVDVLNLLARGFTNADIAAQLHLSEGTVRNHVSTIFAKLDVNDRTQAAVIAIRHGL	-0.775

Sequence	soluble fraction (log2)
HMNRMKLLREQHNLSQTDLAKILNISRQSYNFYENEKRDPDTTMLIRIADFFNVSLDYLLGRTNN	-1.66
HMKKILITGNSGYIGSHLSKMLENDYEVHGLDIRQPQHPVAKFYEQDINRPINIEEEYDAVIHLAALV	-0.196
HMGMVEFEIGERDHSEDVSRKLFEAGLIEDASDFNQYMIEKKMDDHLQTGKYQIPKGATKDEILELIVR	-0.00544
HMAIWAVFYKNEPFNLKSFNSLTSYPGPKYKKTSFSNPGHALNLAKKLNLTFGTEDFQVVKLTQGTIV	-2.61
HMSNIQLVENLYRLRKAHHYTQQEISDLLNISRQAYSNYETSKRTPDLDSLMRLADIYGVSLDQLVNHP	-1.45
HMNSLPFSNFMNEVEAGRVVEVKIQGNNISGVLANGKTFSTYSPNYPELVEKLSSNGVSIVATPQ	0.153
HMKVTADVVVADRLKAWIISNNLKPGDRLPTEQKLSEELGVARHTLREGIKRLSQLGIIGSRTGSGMYVKN	0.0235
HMTPKVTVPDVTGQTFSSAKQILESLGFTVKQQGSTDETDQVIDQNPTSGEADKGATITLTTKSS	0.297
HMQQSVSSLVRRYMLQTIPGINFSLKSTALALNMSDRTLQRKLLSENTSYQIILDDVRKELAIKYLKE	-3.19
HMFEQRLRQAMKELRLKQVQVAGLTGKSRGAISQYLSGDRVPPDGVQREMAIALGLEADYFSR	-0.408
HMNAKKSTLQLDLLKQLLEGNKISLKDFSLSNEISIRTAQRYIEDLLEIFEKNIVKEGDFYSFIS	-2.3
HMDVQGFVMDLDKPLDKEPIVEGFELKLEDSLTLVAAVNKDKSINSLFDELSKLGIKVKSMRNPP	-0.0252
HMDLVESYDLKIIYTSELINLLIDSSRLEEALNLFKDLKDEIDDVENLGFSAKNNLDYMESKLLHLG	-1.83
HMVRRSERLHALTESLRRSGNRGRTAEQLATEFEVSVRTIKRDLVALEASGLPLWSRPGPGGGYGLLS	-1.02
HMRDYKTHLQEVLQSKGEVNIWYKLIDEKGPDHNKKFVMQVGIDSKILGFGEGKSKKEAEQVAARKALDNI	-0.118
HMDTVIAEVTASILNLRRSAGTSSDIIGKLNKGEKVSIIGGSGNWKNVRTSGGITGWVYHEYLSTY	-0.623
HMSADISIGYNIPKGSVTVSAGGRTLQEGIDYDINYDLGTIKITNQAILNAGLPVQVNFENNAS	0.149
HMNSHKIIDRLNQMITEKDLSEEMPAITEAFKNNERSAEDLKKYVAENLSKKLNAEEREKFVSLILQYRN	0.039
HMQRSVEDVFVQLRNGMDTYDMTQIEDALRILHGMELSTAQRDLLDKVQEAYNDLEYETGAALLAGFERIK	0.0317
HMREQAHEVAGKLGYPVMVKASAGGGGKGIRIVRTEDELDQAFEAAQSETKAAFGDDQMYMEKVI	0.00859
HMGMGDALRILFNQAMLIEREQYLQAGAYERNENPVNYANGFKAKTLNTRVGALEVAVPQTRDSAFYPSFL	-0.114
HMAVRTELLALPAGWHGDASRLSTALAALQGVREAVVIASEGVAYLKVHGHDWDRDGARELLQN	0.00676
HMDTFYKNLSKKIKTIREKLSFSQEALAKELGISRVAISQIENGDRKISAEEIAKLSRVFNVPTDILLN	0.187
HMLKDKLSDKDFDFYKNKIQIQLQGNPTELKELVRRFSSTEEQQILKTIDYMLDNGFLRIDEDNMIYWK	-0.00515
HMEPVTETVYAMDTVNIRAAADQTSEKIGSVTVGTALTRTGTDGDWSIIDYNGTTGYVKSEFLSNTAPEV	-0.00262
